B1: Recombinant human ENTH domain from epsin-1 (hENTH) (protein)
chain: NIVHNYSEAEIKVREATSNDPWGPSSSLMSEIADLTYNVVAFSEIMSMIWKRLNDHGKNWRHVYKAMTLMEYLIKTGSERVSQQCKENMYAVQTLKDFQYVDRDGKDQGVNVREKAKQLVALLRDEDRLREER
B2: TolC (natural protein, Escherichia coli, UniProt P02930 23-493, looked up)
chain: ENLMQVYQQARLSNPELRKSAADRDAAFEKINEARSPLLPQLGLGADYTYSNGYRDANGINSNATSASLQLTQSIFDMSKWRALTLQEKAAGIQDVTYQTDQQTLILNTATAYFNVLNAIDVLSYTQAQKEAIYRQLDQTTQRFNVGLVAITDVQNARAQYDTVLANEVTARNNLDNAVEQLRQITGNYYPELAALNVENFKTDKPQPVNALLKEAEKRNLSLLQARLSQDLAREQIRQAQDGHLPTLDLTASTGISDTSYSGSKTRGAAGTQYDDSNMGQNKVGLSFSLPIYQGGMVNSQVKQAQYNFVGASEQLESAHRSVVQTVRSSFNNINASISSINAYKQAVVSAQSSLDAMEAGYSVGTRTIVDVLDATTTLYNAKQELANARYNYLINQLNIKSALGTLNEQDLLALNNALSKPVSTNPENVAPQTPEQNAIADGYAPDSPAPVVQQTSARTTTSNGHNPFRN
notes: TolC, outer membrane protein of Escherichia coli; molecular weight of 161.7 kDa printed for the trimeric state; The protomer is written here; In DDM micelles in the assays; also called integral membrane protein TolC; source: E. coli C43(DE3)ΔAcrAB, solubilised in DDM, purified (HiTrap HP with imidazole elution, SEC)

Experiments:
[1] = molecular target: Q9Y6I3; assay: mass photometry; hENTH at 100 nM in the presence of 200 µM PI(4,5)P2; Refeyn OneMP; control: buffer with 200 µM PI(4,5)P2; conditions: other: mass photometry
[2] = molecular target: the molecule itself; assay: mass photometry; 150 nM TolC in the presence of 0.003% DDM; controls with 0.03% and 0.003% DDM without protein

Protein	N with PI(4,5)P2 [1]	binding result [2]
B1	corresponding to a hexamer of hENTH in the presence of 200 µM PI(4,5)P2	
B2		binds

— paper PMC9259969, “Biophysical Screening Pipeline for Cryo-EM Grid Preparation of Membrane Proteins” (Frontiers in Molecular Biosciences, 2022)
